# Assay results published in patent publication US20240294624A1, “ANTI-ERYTHROPOIETIN ANTIBODY” (ANDREMACON S.R.L., priority 2021, published 2024).
# T1: murine EPO (mEPO) (Mus musculus, UniProt P07321)
# T1 sequence (P07321 27-192): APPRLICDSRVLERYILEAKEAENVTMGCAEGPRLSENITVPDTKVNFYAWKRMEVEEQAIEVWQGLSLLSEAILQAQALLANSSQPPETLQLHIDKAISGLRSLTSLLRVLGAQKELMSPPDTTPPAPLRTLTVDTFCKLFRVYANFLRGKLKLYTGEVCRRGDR
# Assays:
# [1] = test system: cancer cells; experiment: Neutralizing anti-EPO bioassay (MTT); assay type: cell-based; details: nineteen anti-EPO hybridoma culture supernatants compared; 96 h
# Procedure: The cell-based assay was used to measure the capacity of each clone to neutralize EPO signaling. […] Optical density values (O.D.) were recorded, and neutralizing activity of each clone was expressed as percentage of viability of cells treated with clones respect to control condition, BM (FIG. 1A).The best n=3 final clones were selected and specific monoclonal antibodies were separated and purified in PBS at PH7.4 sterilized by membrane filtration (produced in culture supernatant and purified by Protein A/G). Furthermore, anti-EPO monoclonal antibodies were sequenced by the following protocol: total RNA was extracted separately from several batches of cultured hybridoma cells, cDNA were then synthesized by reverse transcription using oligo-dT primers, and VH and VL were finally amplified by PCR. VH and VL fragments, respectively amplified by IgG degenerate primers and Kappa-specific primers, are represented by gel electrophoresis (FIG. 1B), confirming that isotypes were IgG Kappa.
# [2] = Hematological toxicity, blood count; assay type: in vivo; details: mice; IV 10 mg/Kg; 18 days
# Procedure: Blood samples (100 μL) were collected into K3EDTA coated tubes, which were placed on a rotary mixer for at least 30 min, then analyzed for hematological analysis.
# FIGS. 27 and 28 refer to blood count of mice treated intravenously (IV) for 18 days (T18) with anti-EPO at 10 mg/Kg. (A) RBC: red blood cells; (B) HGB: hemoglobin; (C) HCT: hematocrit; (D) MCV: mean corpuscular volume; (E) MCH: mean corpuscular hemoglobin; (F) MCHC: mean corpuscular hemoglobin concentration; (G) RDW: red cell distribution width; (H) RET: reticulocyte Count; (I) PLT: platelets. Data are means±SD (FIG. 27) and A) WBC: white blood cells; (B) NEUT: neutrophils; (C) LYMP: lymphocytes; (D) MONO: monocytes; (E) EOS: eosinophils; (F) BASO: basophils. Data are means±SD (FIG. 28).
# [3] = target: T1, murine EPO (mEPO); experiment: SPR binding kinetics; details: m-EPO
# Procedure: FIG. 26A SPR technology can allow to determine the plasma and tissue concentrations of antibody, on the basis of an appropriate calibration curve. FIG. 26B Blood samples were collected from the retroorbital plexus under isoflurane anesthesia at 4, 24, 48, 72, 120, and 168 h from treatment.
# SPR is a technology widely used to study in real time the interaction between two unlabeled molecules, one (the “ligand”) immobilized on a sensor chip, and the other (the “analyte”) flowing through a microfluidic system over the chip surface. Binding is measured in real time as a change in the refractive index on the surface. The most common application of SPR is to determine the association/dissociation binding constants for biomolecular interactions, but its versatility allows many other uses, including label-free immunoassays and concentration determination of biologics.
# The study was carried out using an up-to-date SPR apparatus, the ProteOn XPR36 Protein Interaction Array system (Bio-Rad Laboratories). This system is mainly characterized by the presence of six flow channels which can uniformly immobilize up to six ligands on parallel strips of the same sensor surface.
# In addition, SPR analysis was performed for anti-EPO (C4) to evaluate the binding kinetics parameters.
# [4] = test system: N9 microglia cells; experiment: Microglia proliferation and morphology after LPS; assay type: cell-based, murine; details: after LPS stimulation
# Procedure: N9 microglial cells were seeded in multiwell plates at a concentration of 1.5×10^4 for 24 hours. The following day the cells were administered the following treatments for 24 hours: • LPS; • Anti-EPO (c4) antibody administered alone; • Anti-EPO (c4) antibody in combination with LPS • Anti-EPO (c4) antibody in combination with LPS and FTY720
# N9 cells were detached with enzyme, and an aliquot of known volume was labeled with trypan blue and observed under the microscope for counting. Considering that the number of cells in the culture control, without any treatment, as being 100, the percentage of proliferation of N9 cultured in presence of LPS, anti-EPO (C4) antibody, combination of LPS and anti-EPO antibody was calculated (FIG. 15B).
# N9 cells were cultured in Iscove's Modified Dulbecco's MEM, IMDM containing streptomycin/1× penicillin and 2 mM L-glutamine, supplemented with FBS (fetal bovine serum) at 5%. The cells were plated at a concentration of 1.5×10^4 cells/cm2 and kept in a thermostatic incubator at 37° C., with 5% C02, for 24 hours, as above. The next day, the cells were exposed to different treatments for 48 hours. At the end of the treatments, cell viability and proliferation were assessed by staining with trypan blue and observed under the microscope for counting.
# The microglia were maintained in a basal culture medium and then activated with lipopolysaccharide (LPS). […]
molecule,measurement,setting,value
"anti-EPO (C4): isolated anti-Erythropoietin monoclonal antibody, VL SEQ ID NO:6, VH SEQ ID NO:14, hybridoma DSM ACC 3370 (antibody, listed as Homo sapiens, V domains shown, VH amino acid sequence; VL amino acid sequence) VH: EVKLQESGGGLVQPGGSLKLSCAASGFTFSTYTMSWVRQTPEKRLEWVAYISNGGDRTYYPDTVKGRFTISRDDAKNTLFLQMSSLKSEDTAMYYCARHNITTVPFTMDYWGQGTSVTVSS VL: DIVLTQSPASLAVSLGQRATISCRASESVDYYGTGLMQWYQQRPGQPPKLLIYGASNVGSGVPARFSGSGSGTDFSLNIHPVEGDDIAMYFCQQTRKVPSTFGGGTKLEIK",neutralizing activity (inhibition of cancer cell viability),[1],higher neutralizing activity
same,blood count (hematological parameters),[2],no significant variations in all hematological parameters analyzed
same,kd,[3],0.000669 s⁻¹
same,Kd,[3]; rounded,1000 nM
same,morphology of microglia,[4],recover or maintain a branched morphology
